# In publication PMC9135340:
# Read-outs that look alike come from different tables or passages of the source.
# How the values were obtained:
# PTCH2 (Homo sapiens) [1] = target: PTCH2 (Homo sapiens) (UniProt Q9Y6C5); settings: cited from earlier work
# PTCH1 (Homo sapiens) [2] = target: PTCH1 (Homo sapiens) (UniProt Q13635); settings: cited from earlier work
# PTCH2 (Homo sapiens) [3] = target: PTCH2 (Homo sapiens) (UniProt Q9Y6C5); settings: cited from earlier work; remark: listed apart in the source
# PTCH1 (Homo sapiens) [4] = target: PTCH1 (Homo sapiens) (UniProt Q13635); settings: cited from earlier work; remark: listed apart in the source
# PTCH1 (Homo sapiens) [5] = target: PTCH1 (Homo sapiens) (UniProt Q13635); settings: cited from earlier work; remark: listed apart in the source
# PTCH2 (Homo sapiens) [6] = target: PTCH2 (Homo sapiens) (UniProt Q9Y6C5); settings: cited from earlier work; remark: listed apart in the source
# [7] = target: recombinant PTCH2 (amino acids 79 to 379; putative loop 1 ligand binding region) (UniProt Q9Y6C5); assay: SPR; Biacore T100; rPTCH2-His immobilised on a nickel chip; rTRP120-TR or rTrx injected at 2-fold dilutions (800nM to 25nM); three independent experiments
# recombinant PTCH2 (amino acids 79 to 379; putative loop 1 ligand binding region), sequence (Q9Y6C5 79-379): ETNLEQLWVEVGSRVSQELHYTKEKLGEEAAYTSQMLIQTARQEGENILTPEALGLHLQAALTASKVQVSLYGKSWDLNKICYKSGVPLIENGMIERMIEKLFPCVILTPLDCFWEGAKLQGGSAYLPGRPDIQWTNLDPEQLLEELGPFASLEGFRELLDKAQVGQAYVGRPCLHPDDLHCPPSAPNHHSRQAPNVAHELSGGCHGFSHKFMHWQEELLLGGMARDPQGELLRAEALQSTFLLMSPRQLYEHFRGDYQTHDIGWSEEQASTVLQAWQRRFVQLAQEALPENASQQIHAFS
# PTCH1 (Homo sapiens), sequence (Q13635 whole entry): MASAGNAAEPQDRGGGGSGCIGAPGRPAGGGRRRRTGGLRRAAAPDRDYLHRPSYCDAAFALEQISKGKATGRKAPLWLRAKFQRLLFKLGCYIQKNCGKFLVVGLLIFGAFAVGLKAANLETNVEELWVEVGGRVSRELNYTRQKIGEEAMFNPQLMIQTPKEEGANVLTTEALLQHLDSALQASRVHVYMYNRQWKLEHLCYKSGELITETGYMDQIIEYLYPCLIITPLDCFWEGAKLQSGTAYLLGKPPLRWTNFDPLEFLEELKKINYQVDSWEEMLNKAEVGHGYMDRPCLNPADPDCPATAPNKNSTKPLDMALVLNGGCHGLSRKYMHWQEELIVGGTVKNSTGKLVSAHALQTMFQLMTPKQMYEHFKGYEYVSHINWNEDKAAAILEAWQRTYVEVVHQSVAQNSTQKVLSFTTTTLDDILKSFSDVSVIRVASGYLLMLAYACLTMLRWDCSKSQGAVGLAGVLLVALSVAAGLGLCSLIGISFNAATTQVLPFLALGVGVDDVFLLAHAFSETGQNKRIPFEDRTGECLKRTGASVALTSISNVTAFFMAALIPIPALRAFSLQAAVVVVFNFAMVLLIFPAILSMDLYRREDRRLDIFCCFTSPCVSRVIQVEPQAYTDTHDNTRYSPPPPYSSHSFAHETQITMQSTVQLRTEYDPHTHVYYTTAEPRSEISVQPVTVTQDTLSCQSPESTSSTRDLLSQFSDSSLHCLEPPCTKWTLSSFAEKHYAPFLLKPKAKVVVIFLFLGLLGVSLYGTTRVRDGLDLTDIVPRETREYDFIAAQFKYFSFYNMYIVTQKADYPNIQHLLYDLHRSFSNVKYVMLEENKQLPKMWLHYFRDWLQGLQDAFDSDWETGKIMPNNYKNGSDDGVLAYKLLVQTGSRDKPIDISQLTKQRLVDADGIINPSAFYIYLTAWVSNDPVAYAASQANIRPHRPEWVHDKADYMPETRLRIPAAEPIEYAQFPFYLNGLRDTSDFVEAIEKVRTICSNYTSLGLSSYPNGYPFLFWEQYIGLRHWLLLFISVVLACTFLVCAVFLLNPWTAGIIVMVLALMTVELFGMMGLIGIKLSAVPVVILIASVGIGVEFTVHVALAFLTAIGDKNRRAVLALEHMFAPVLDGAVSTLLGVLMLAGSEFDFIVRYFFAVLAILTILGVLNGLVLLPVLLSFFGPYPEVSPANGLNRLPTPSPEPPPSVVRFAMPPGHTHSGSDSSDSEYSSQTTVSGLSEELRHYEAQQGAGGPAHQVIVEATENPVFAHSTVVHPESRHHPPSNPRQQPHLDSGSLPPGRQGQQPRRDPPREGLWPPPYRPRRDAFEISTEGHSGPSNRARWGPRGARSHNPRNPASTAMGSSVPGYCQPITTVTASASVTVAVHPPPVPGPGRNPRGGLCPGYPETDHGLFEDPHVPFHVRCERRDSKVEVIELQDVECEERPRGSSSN
# PTCH2 (Homo sapiens), sequence (Q9Y6C5 whole entry, the tested form may be a part): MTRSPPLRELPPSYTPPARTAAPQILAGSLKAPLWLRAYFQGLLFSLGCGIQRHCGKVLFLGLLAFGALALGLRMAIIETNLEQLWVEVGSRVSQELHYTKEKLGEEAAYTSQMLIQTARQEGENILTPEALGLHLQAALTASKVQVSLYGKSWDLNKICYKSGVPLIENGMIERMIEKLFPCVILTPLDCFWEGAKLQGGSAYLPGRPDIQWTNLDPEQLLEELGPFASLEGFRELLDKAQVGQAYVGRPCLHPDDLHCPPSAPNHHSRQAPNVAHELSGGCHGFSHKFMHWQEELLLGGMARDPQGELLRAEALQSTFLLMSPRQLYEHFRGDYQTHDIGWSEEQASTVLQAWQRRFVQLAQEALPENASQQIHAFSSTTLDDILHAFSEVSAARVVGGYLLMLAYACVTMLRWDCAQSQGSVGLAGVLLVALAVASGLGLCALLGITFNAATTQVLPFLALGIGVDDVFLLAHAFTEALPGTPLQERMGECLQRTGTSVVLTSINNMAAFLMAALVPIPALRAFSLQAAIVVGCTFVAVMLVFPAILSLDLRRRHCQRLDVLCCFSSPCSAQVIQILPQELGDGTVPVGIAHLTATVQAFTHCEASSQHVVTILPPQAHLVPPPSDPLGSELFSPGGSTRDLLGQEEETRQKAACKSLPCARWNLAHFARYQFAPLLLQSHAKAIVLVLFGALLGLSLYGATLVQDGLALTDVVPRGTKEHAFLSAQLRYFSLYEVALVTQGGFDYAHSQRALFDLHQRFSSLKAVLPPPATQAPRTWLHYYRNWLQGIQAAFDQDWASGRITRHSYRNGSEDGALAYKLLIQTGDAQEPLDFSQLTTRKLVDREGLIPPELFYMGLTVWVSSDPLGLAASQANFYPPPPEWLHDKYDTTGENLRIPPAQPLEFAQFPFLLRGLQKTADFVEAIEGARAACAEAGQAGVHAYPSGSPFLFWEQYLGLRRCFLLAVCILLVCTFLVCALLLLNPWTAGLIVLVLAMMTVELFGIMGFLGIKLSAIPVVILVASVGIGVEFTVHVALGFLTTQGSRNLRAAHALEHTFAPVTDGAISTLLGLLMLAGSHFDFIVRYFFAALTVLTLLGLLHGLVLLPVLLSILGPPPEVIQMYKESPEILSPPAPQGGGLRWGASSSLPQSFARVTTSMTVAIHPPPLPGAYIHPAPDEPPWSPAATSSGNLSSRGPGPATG
# Ihh, sequence (Q14623 28-202): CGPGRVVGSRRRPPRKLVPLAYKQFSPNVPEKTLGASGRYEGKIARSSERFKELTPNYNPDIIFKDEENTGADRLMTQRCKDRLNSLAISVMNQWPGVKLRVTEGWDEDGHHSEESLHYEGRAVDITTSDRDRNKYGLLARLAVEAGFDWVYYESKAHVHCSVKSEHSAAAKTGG
substance,measurement,setting,value
Dhh (from UniProt O43323),Kd,PTCH2 (Homo sapiens) [1],0.6 nM
same,Kd,PTCH1 (Homo sapiens) [2],2.6 nM
Ihh (from UniProt Q14623),Kd,PTCH2 (Homo sapiens) [3],0.4 nM
same,Kd,PTCH1 (Homo sapiens) [4],1 nM
Shh (from UniProt Q15465),Kd,PTCH1 (Homo sapiens) [5],1 nM
same,Kd,PTCH2 (Homo sapiens) [6],1.8 nM
recombinant TRP120 tandem repeat domain (rTRP120-TR) (domain or fragment),Kd,[7],4.4 nM
